# Laboratory results as given in PMC7527217 (Science Advances, 2020).
# Read-outs that look alike come from different tables or passages of the source.
# T1: recombinant human Bcl-w (residues 9 to 152) (human, UniProt Q92843 9-152)
# T1 sequence (looked up): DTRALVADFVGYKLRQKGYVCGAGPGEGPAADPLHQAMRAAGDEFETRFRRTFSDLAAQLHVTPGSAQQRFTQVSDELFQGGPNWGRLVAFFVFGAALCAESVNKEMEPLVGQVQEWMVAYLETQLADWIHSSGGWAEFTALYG
# T2: recombinant human A1/Bfl-1 (residues 1 to 151) (human, UniProt Q16548 1-151)
# T2 sequence (looked up): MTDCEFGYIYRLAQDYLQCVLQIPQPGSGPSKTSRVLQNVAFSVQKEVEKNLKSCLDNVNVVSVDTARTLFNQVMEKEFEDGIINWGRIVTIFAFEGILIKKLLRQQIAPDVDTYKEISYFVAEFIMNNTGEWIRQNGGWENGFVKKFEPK
# T3: Flag-tagged trBcl-2L1 (Trichoplax adhaerens, UniProt A0A1B1IJP0 1-215)
# T3 sequence (looked up): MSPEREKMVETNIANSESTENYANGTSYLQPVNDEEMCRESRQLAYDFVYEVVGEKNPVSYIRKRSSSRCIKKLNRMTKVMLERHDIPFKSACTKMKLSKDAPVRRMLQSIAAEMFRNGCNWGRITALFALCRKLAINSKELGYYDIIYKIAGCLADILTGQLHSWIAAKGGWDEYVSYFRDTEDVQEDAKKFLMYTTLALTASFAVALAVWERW
# T4: Flag-tagged trBcl-2L2 (Trichoplax adhaerens, UniProt A0A1B1IJN9 1-211)
# T4 sequence (looked up): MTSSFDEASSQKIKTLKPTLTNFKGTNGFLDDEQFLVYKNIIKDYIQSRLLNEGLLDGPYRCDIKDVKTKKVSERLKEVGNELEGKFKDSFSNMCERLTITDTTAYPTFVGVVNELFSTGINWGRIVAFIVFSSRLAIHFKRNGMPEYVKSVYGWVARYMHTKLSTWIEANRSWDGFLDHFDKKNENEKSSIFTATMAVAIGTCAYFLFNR
# B1: EGFP-tagged trBax (natural protein, Trichoplax adhaerens, UniProt A0A1B1IJP1 1-241, looked up)
# chain: MADFTYVLITRSISTIFSSSCLIAMAHVKSVTSTPTTTTTTTTQSCPRREENLKEIAAESKKLFLDFIADRSAKDGQDQGCISQLTREHNELQIEPTSPTIQVARTIRQIGDELDSDPHLNGLLHKLHVTSSTAYSTFRRVAMRIFQDGQFNWGRIITLFFFGYRLTIRVLSESPIVEMIISWIARFIYEICSFWIAESGGWDAITQYIQQADWKNKYTLGLIAVGVLVTAFVTWQRYNSS
# B2: EGFP-tagged trBak (natural protein, Trichoplax adhaerens, UniProt A0A1B1IJN7 1-251, looked up)
# chain: MSSTITIAESLENGENNDEQEEANTSRSQFRVTRAQVIRRQLSANPAHLPVSEQEVINETSSIFRSFVVESYQAERDGGIIAEEVRSFADQVQSSSNQTITPSSPTSEIGRHLAQLGDSYSVRFQNEFRLMITHLDINPGTAYRTFAGVARRLFRDGISWRRIVTLMAFGYQIAIDVMRSGVQGFLSRICNFIVRFISGEHIANWIARQGGWRAARYEGLASPGWPAIIGVATAAAASVFGVLWLSGYFRE
# How the values were obtained:
# [1] = molecular target: recombinant trBcl-2L1 (Trichoplax adhaerens Bcl-2-like protein 1), lacking the 33 N-terminal and 29 C-terminal residues (Trichoplax adhaerens); assay: ITC
# [2] = molecular target: recombinant trBcl-2L2 (Trichoplax adhaerens Bcl-2-like protein 2), lacking the 7 N-terminal and 34 C-terminal residues (Trichoplax adhaerens); assay: ITC
# [3] = molecular target: recombinant trBcl-2L1 (Trichoplax adhaerens Bcl-2-like protein 1), lacking the 33 N-terminal and 29 C-terminal residues (Trichoplax adhaerens); assay: ITC; remark: listed apart in the source
# [4] = molecular target: recombinant trBcl-2L2 (Trichoplax adhaerens Bcl-2-like protein 2), lacking the 7 N-terminal and 34 C-terminal residues (Trichoplax adhaerens); assay: ITC; remark: listed apart in the source
# [5] = molecular target: recombinant human Bcl-2 (residues 10 to 203) (human, UniProt P10415 10-203); assay: ITC
# [6] = molecular target: recombinant human Bcl-xL (residues 1 to 209, Δloop45 to 84) (human, UniProt Q07817-1 1-209, Δloop45 to 84); assay: ITC
# [7] = molecular target: T1, recombinant human Bcl-w (residues 9 to …); assay: ITC
# [8] = molecular target: recombinant human Mcl-1 (residues 171 to 320) (human, UniProt Q07820 171-320); assay: ITC
# [9] = molecular target: T2, recombinant human A1/Bfl-1 (residues 1 …); assay: ITC
# Flag-tagged trBcl-2L1 = molecular target: T3, Flag-tagged trBcl-2L1; assay: FRET or BRET
# Flag-tagged trBcl-2L2 = molecular target: T4, Flag-tagged trBcl-2L2; assay: FRET or BRET
# Chain of recombinant human Bcl-2 (residues 10 to 203) (P10415 10-203): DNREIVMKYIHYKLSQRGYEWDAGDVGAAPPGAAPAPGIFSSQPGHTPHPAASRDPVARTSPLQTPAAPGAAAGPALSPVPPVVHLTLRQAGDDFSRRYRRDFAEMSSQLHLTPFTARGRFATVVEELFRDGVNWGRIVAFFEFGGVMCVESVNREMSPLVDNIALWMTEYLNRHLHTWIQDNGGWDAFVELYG
# Chain of recombinant human Mcl-1 (residues 171 to 320) (Q07820 171-320): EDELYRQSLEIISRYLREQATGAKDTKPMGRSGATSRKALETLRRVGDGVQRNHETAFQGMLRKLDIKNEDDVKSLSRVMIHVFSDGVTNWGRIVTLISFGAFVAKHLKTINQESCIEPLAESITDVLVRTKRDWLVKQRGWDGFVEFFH
molecule,measurement,setting,value
hsBim BH3 peptide,Kd,[1],0.083 µM
same,Kd,[2],0.041 µM
hsPuma BH3 peptide,Kd,[1],0.005 µM
same,Kd,[2],0.081 µM
hsBid BH3 peptide,Kd,[1],0.124 µM
same,Kd,[2],0.17 µM
hsBax BH3 peptide,Kd,[1],0.007 µM
same,Kd,[2],0.015 µM
IEPTSPTIQVARTIRQIGDELDSDPHLN [trBax BH3 peptide],Kd,[3],0.426 µM
same,Kd,[4],0.728 µM
same,Kd,[5],3.06 µM
same,Kd,[6],0.877 µM
same,Kd,[7],0.767 µM
same,Kd,[8],0.067 µM
same,Kd,[9],0.135 µM
PSSPTSEIGRHLAQLGDSYSVRFQNE [trBak BH3 peptide],Kd,[3],1.43 µM
same,Kd,[4],0.563 µM
same,Kd,[5],0.045 µM
same,Kd,[6],0.197 µM
same,binding result,[7],binds
same,binding result,[8],binds
same,Kd,[9],0.013 µM
B1,FRET efficacy,Flag-tagged trBcl-2L1,5.84%
same,FRET efficacy,Flag-tagged trBcl-2L2,2.81%
B2,FRET efficacy,Flag-tagged trBcl-2L1,11.2%
same,FRET efficacy,Flag-tagged trBcl-2L2,5.45%
